The source of these data is patent US20260286002 (published 2026).

Read-outs that look alike come from different tables or passages of the source.

The target of experiment [1] is T1, human CD39-His (human, UniProt P49961).
T1 chain: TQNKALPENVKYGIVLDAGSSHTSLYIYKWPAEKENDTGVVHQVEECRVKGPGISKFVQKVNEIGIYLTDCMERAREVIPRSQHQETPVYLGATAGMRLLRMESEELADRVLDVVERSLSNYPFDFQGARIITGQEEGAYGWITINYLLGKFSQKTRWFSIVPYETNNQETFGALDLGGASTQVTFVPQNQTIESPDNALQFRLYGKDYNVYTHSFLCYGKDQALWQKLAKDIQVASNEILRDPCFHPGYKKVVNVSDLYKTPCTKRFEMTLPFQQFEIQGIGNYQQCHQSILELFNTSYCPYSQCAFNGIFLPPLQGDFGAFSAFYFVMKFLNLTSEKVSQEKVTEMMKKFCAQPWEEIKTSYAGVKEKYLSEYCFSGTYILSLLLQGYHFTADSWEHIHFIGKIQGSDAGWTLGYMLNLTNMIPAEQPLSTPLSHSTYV
Briefly: BLI. For orientation: In BLI a coated tip is dipped into the sample, and binding shifts an interference pattern.

Experiment [2] deals with T1, human CD39-His. Nature of the experiment: BLI.

B1: B391-F04 (designed binder)
chain: QLQLVESGGGLVQPGGSLRLSCAASGFTFSNLGMSWYRQAPGKAREWVGSISASGDYTTYQNSVKGRFTISRDNAKNTLYLQMNNLKPEDTGVYYCTRRVDSYPRGQGTQVTVSS
Take B1: the Kd – broadly, the concentration at which binding is half-saturated – was found to be 0.398 nM in experiment [1] and 0.255 nM in experiment [2].
